According to PMC3433432:

Legend:
[1] = biological target: L17C APP-eGFP (human APP751 with leucine 17 of the Aβ sequence mutated to cysteine, fused to eGFP) (human); test: FRET or BRET; homoFRET by tr-FAIM under TIRF excitation (s polarized light), at the plasma membrane; objective 60x NA 1.49; living HEK293 cells, 37°C, 5% CO2
[2] = biological target: L17C APP-eGFP (human APP751 with leucine 17 of the Aβ sequence mutated to cysteine, fused to eGFP) (human); test: FRET or BRET; homoFRET by time-resolved fluorescence anisotropy imaging (tr-FAIM), epifluorescence excitation, objective 60x NA 1.49, xNA = 1.2; living HEK293 cells, 37°C, 5% CO2
[3] = biological target: enhanced Green Fluorescent Protein (eGFP), cytosolic; test: as above

Substance | depolarization time associated with energy transfer (homoFRET) [1] | depolarization time associated with energy transfer (homoFRET) [2] | proportion of molecules in interaction (homoFRET) [3]
L17C APP-eGFP (human APP751 with leucine 17 of the Aβ sequence mutated to cysteine, fused to eGFP) (natural protein) | 5.4 ns | 2.4 ns | 
enhanced Green Fluorescent Protein (eGFP), cytosolic |  |  | 6.6%
